# Target: human TPO receptor (MPL) (human) (UniProt P40238)
# Experiment: cell-based or functional assay
substance,measurement,value
human TPO (R&D Systems) (from UniProt P40225 22-353) (ligand),"proliferation of BaF/mpl cells (WST-8), ED50",0.027 nM

# Source: patent US20040242847A1
